Ends that are not written are not given here.
Target: T1, bovine serum albumin (bovine, UniProt P02769 25-607)
T1 construct: Negative control surface; also called BSA
Assay: BioFlux microfluidic adhesion, RhB-labeled “VBP+CBP”-decorated liposomes flowed at 25 dyn/cm^2 over albumin-coated channels, fluorescence microscopy
Procedure: The “VBP+CBP”-decorated nanoparticles and control (undecorated) nano-particles were evaluated for their specific adhesion capabilities utilizing a BioFlux 200 microfluidic system (Fluxion Biosciences) and observed under inverted fluorescence microscope imaging. This system allows simulation of a physiologically relevant vascular flow environment. Here, the microfluidic channels were incubated with either 0.3 wt % bovine serum albumin (BSA) in water or 40 μg/mL equine type 1 fibrillar collagen and 10 μg/mL vWF in 20 μM acetic acid for 1.5 h. Unbound albumin and collagen were removed with a saline rinse. […] Fluorescence microscopy imaging of particle Rhodamine B label was used to quantify the extent of particle adhesion to the coated surfaces. Thrombin release kinetics was measured by sealing the column-separated t-TLNPs in a MWCO 100 K dialysis bag, placing the bag in a TBS reservoir, and removing aliquots from the reservoir at predefined time points over the course of 6 h (fresh TBS was added back to the reservoir appropriately after each aliquot removal). […] Thrombin concentrations from the collected aliquots were evaluated using a human thrombin ELISA and plotted over time to determine the release profile. […]

T1 sequence (P02769 25-607 limits assumed): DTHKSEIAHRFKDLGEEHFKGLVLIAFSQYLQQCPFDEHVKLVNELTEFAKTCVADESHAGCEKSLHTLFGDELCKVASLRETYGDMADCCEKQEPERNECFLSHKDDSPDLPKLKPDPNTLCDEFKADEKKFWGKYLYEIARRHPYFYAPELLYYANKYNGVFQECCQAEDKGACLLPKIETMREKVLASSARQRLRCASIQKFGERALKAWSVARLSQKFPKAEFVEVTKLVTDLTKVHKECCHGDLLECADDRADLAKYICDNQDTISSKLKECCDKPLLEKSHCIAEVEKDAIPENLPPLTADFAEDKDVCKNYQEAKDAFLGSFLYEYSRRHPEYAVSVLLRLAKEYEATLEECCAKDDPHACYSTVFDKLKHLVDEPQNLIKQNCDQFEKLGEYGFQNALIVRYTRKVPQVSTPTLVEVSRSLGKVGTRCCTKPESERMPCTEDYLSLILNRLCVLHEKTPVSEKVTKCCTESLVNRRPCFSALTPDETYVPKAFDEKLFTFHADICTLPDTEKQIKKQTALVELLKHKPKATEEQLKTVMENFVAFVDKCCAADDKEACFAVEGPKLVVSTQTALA

B1: vWF-binding peptide (VBP), cysteinylated, CTRYLRIHPQSWVHQI, conjugated to DSPE-PEG2K and displayed on liposomal nanoparticles (peptide)
peptide: C(DSPE‑PEG2000‑maleimide)TRYLRIHPQSWVHQI
notes: In every adhesion assay the peptide stood on the surface of liposomes (1.25 mol % DSPE-PEG2K-VBP) together with CBP (1.25 mol %); also called DSPE-PEG2K-VBP
  binding result: no binding
